Measured values: doi:10.1101/2025.03.11.642517 (bioRxiv, 2025)

Tests used:
[1] = target: DS90 Fc dimer (DS90 nanobody fused to human Fc) (alpaca (Vicugna pacos)); assay: SPR
[2] = target: DS34 FcM (DS34 nanobody fused to human monomeric Fc) (alpaca (Vicugna pacos)); assay: SPR
[3] = target: DS90 FcM (DS90 nanobody fused to human monomeric Fc) (alpaca (Vicugna pacos)); assay: SPR
[4] = target: DS76 FcM (DS76 nanobody fused to human monomeric Fc) (alpaca (Vicugna pacos)); assay: SPR
[5] = target: NiV F expressed in HeLa cells under IRES-GFP (Nipah virus, Malaysia, UniProt Q9IH63); assay: immunostaining of cells or tissue

Binder	binding result [5]	other results
Biotinylated prefusion NiV F with AviTag (domain or fragment, biotin (on the AviTag, by BirA)) ILHYEKLSKIGLVKGVTRKYKIKSNPLTKDIVIKMIPNVSNMSQCTGSVMENYKTRLNGILTPIKGALEIYKNNTHDLVGDVRLAGVIMAGVAIGIATAAQITAGVALYEAMKNADNINKLKSSIESTNEAVVKLQETAEKTVYVLTALQDYINTNLVPTIDKISCKQTELSLDLALSKYLSDLLFVFGPNLQDPVSNSMTIQAISQAFGGNYETLLRTLGYATEDFDDLLESDSITGQIIYVDLSSYYIIVRVYFPILTEIQQAYIQELLPVSFNNDNSEWISIVPNFILVRNTLISNIEIGFCLITKRSVICNQDYATPMTNNMRECLTGSTEKCPRELVVSSHVPRFALSNGVLFANCISVTCQCQTTGRAISQSGEQTLLMIDNTTCPTAVLGNVIISLGKYLGSVNYNSEGIAIGPPVFTDKVDISSQISSMNQSLQQSKDYIKEAQRLLDT	–	binding result [1]: binds; Kd [2]: 0.0234 µM; Kd [3]: 0.00483 µM; Kd [4]: 0.303 µM
DS29 clone, E. coli crude extract of the bacterial display library (VHH) VHH: VQLVESGGGLVQPGGSLRLSCAASGFTFDDYGMSWVRQAPGKGLEWVSAISWNGGGTYYAESMKGRFTISRDNAKNTVYLQMNGLKPEDTAVYYCAKPSTYSGSWLTDFGSWGQGTQVTVSS	binds	–
DS90 clone, E. coli crude extract of the bacterial display library (VHH) VHH: VQLVESGGGLVQAGGSLRLSCAASGRTFSSYVMGWYRQAPGKEREFVARISWSGGHTHSADSVKGRFTISRDNAKNTVYLQMNSLKPDDTAIYYCNAEPTVTGSWFTPGLQSYWGQGTQVTVSS	binds	–
Bacterially expressed DS90-cMyc (VHH) VHH: VQLVESGGGLVQAGGSLRLSCAASGRTFSSYVMGWYRQAPGKEREFVARISWSGGHTHSADSVKGRFTISRDNAKNTVYLQMNSLKPDDTAIYYCNAEPTVTGSWFTPGLQSYWGQGTQVTVSS	binds	–
DS34 clone, E. coli crude extract of the bacterial display library (VHH) VHH: VQLVESGGGLVQAGGSLRLSCAASGRTFSSYVMGWYRQAPGKEREFVARISWSGGHTHSADSVKGRFTISRDNAKNTVYLQMNSLKPDDTAIYYCNAEPTATGSWFTPGLQSYWGQGTQVTVSS	binds	–
DS76 clone, E. coli crude extract of the bacterial display library (VHH) VHH: VQLVESGGGLVQAGGSLGLSCAASGRTFSSYVMGWYRQAPGKEREFVARISWSGGHTHSADSVKGRFTISRDNAKNTVYLQMNSLKPDDTAIYYCNAEPSVTGSWFTPGLQSYWGQGTQVTVSS	binds	–
